Results taken from paper PMC5638582.

Target: Erv1 with a C-terminal histidine tag (Erv1-His) (S. cerevisiae) (UniProt P27882)
Experiment: pull-down

Sequence of UniProt P27882 (P27882 whole entry): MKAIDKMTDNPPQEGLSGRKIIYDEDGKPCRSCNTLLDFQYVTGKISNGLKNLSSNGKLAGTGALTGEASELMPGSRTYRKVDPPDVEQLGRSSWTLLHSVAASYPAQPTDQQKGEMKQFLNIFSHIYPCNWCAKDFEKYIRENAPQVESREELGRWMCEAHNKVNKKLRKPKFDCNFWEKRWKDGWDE

fraction copurified: 10%
Substance: Osm1 (fumarate reductase), endogenous mitochondrial form (from UniProt P21375 33-501) (enzyme)
